# Assay results published in patent publication US20260167699A1 (Chugai, published 2026).
# B1: GpH7-A5/GpH7-B3 variant A327_09D/GpL16-k0 (antibody, human IgG1, kappa)
# heavy 1: not shown
# heavy 2: not shown
# light: DIVMTQSPLSLPVTPGEPASISCQASESLVHSNRNTYLHWYLQKPGQSPQLLIYKVSNRFSGVPDRFSGSGSGTDFTLKISRVEAEDVGVYYCSQNTHVPPTFGQGTKVEIERTVAAPSVFIFPPSDEQLKSGTASVVCLLNNFYPREAKVQWKVDNALQSGNSQESVTEQDSKDSTYSLSSTLTLSKADYEKHKVYACEVTHQGLSSPVTKSFNRGEC
# notes: He Ab; copies: 1 + 1 + 2
# B2: GpH7-A5/GpH7-B3 variant A330_06M/GpL16-k0 (antibody, human IgG1, kappa)
# heavy 1: not shown
# heavy 2: not shown
# light: B1 light
# notes: He Ab; copies: 1 + 1 + 2
# B3: GpH7-A5/GpH7-B3 variant A327_19Q/GpL16-k0 (antibody, human IgG1, kappa)
# heavy 1: not shown
# heavy 2: not shown
# light: B1 light
# notes: He Ab; copies: 1 + 1 + 2
# B4: GpH7-A5/GpH7-B3 variant A330_20W/GpL16-k0 (antibody, human IgG1, kappa)
# heavy 1: not shown
# heavy 2: not shown
# light: B1 light
# notes: He Ab; copies: 1 + 1 + 2
# B5: GpH7-A5/GpH7-B3 variant D270_14T/GpL16-k0 (antibody, human IgG1, kappa)
# heavy 1: not shown
# heavy 2: not shown
# light: B1 light
# notes: He Ab; copies: 1 + 1 + 2
# B6: GpH7-A5/GpH7-B3 variant E333_07I/GpL16-k0 (antibody, human IgG1, kappa)
# heavy 1: not shown
# heavy 2: not shown
# light: B1 light
# notes: He Ab; copies: 1 + 1 + 2
# B7: GpH7-A5/GpH7-B3 variant A327_13S/GpL16-k0 (antibody, human IgG1, kappa)
# heavy 1: not shown
# heavy 2: not shown
# light: B1 light
# notes: He Ab; copies: 1 + 1 + 2
# B8: GpH7-A5/GpH7-B3 variant A330_04F/GpL16-k0 (antibody, human IgG1, kappa)
# heavy 1: not shown
# heavy 2: not shown
# light: B1 light
# notes: He Ab; copies: 1 + 1 + 2
# B9: GpH7-A5/GpH7-B3 variant A330_11K/GpL16-k0 (antibody, human IgG1, kappa)
# heavy 1: not shown
# heavy 2: not shown
# light: B1 light
# notes: He Ab; copies: 1 + 1 + 2
# B10: GpH7-A5/GpH7-B3 variant A330_15Y/GpL16-k0 (antibody, human IgG1, kappa)
# heavy 1: not shown
# heavy 2: not shown
# light: B1 light
# notes: He Ab; copies: 1 + 1 + 2
# B11: GpH7-A5/GpH7-B3 variant E269_19Q/GpL16-k0 (antibody, human IgG1, kappa)
# heavy 1: not shown
# heavy 2: not shown
# light: B1 light
# notes: He Ab; copies: 1 + 1 + 2
# B12: GpH7-A5/GpH7-B3 variant E269_18N/GpL16-k0 (antibody, human IgG1, kappa)
# heavy 1: not shown
# heavy 2: not shown
# light: B1 light
# notes: He Ab; copies: 1 + 1 + 2
# B13: GpH7-A5/GpH7-B3 variant E269_13S/GpL16-k0 (antibody, human IgG1, kappa)
# heavy 1: not shown
# heavy 2: not shown
# light: B1 light
# notes: He Ab; copies: 1 + 1 + 2
# B14: GpH7-A5/GpH7-B3 variant E269_07I/GpL16-k0 (antibody, human IgG1, kappa)
# heavy 1: not shown
# heavy 2: not shown
# light: B1 light
# notes: He Ab; copies: 1 + 1 + 2
# B15: GpH7-A5/GpH7-B3 variant A330_18N/GpL16-k0 (antibody, human IgG1, kappa)
# heavy 1: not shown
# heavy 2: not shown
# light: B1 light
# notes: He Ab; copies: 1 + 1 + 2
# B16: GpH7-A5/GpH7-B3 variant D270_06M/GpL16-k0 (antibody, human IgG1, kappa)
# heavy 1: not shown
# heavy 2: not shown
# light: B1 light
# notes: He Ab; copies: 1 + 1 + 2
# B17: GpH7-A5/GpH7-B3 variant E269_15Y/GpL16-k0 (antibody, human IgG1, kappa)
# heavy 1: not shown
# heavy 2: not shown
# light: B1 light
# notes: He Ab; copies: 1 + 1 + 2
# B18: GpH7-A5/GpH7-B3 variant G236_20W/GpL16-k0 (antibody, human IgG1, kappa)
# heavy 1: not shown
# heavy 2: not shown
# light: B1 light
# notes: He Ab; copies: 1 + 1 + 2
# B19: GpH7-A5/GpH7-B3 variant E269_16H/GpL16-k0 (antibody, human IgG1, kappa)
# heavy 1: not shown
# heavy 2: not shown
# light: B1 light
# notes: He Ab; copies: 1 + 1 + 2
# B20: GpH7-A5/GpH7-B3 variant E269_03V/GpL16-k0 (antibody, human IgG1, kappa)
# heavy 1: not shown
# heavy 2: not shown
# light: B1 light
# notes: He Ab; copies: 1 + 1 + 2
# B21: GpH7-A5/GpH7-B3 variant A330_16H/GpL16-k0 (antibody, human IgG1, kappa)
# heavy 1: not shown
# heavy 2: not shown
# light: B1 light
# notes: He Ab; copies: 1 + 1 + 2
# B22: GpH7-A5/GpH7-B3 variant D270_19Q/GpL16-k0 (antibody, human IgG1, kappa)
# heavy 1: not shown
# heavy 2: not shown
# light: B1 light
# notes: He Ab; copies: 1 + 1 + 2
# B23: GpH7-A5/GpH7-B3 variant E333_18N/GpL16-k0 (antibody, human IgG1, kappa)
# heavy 1: not shown
# heavy 2: not shown
# light: B1 light
# notes: He Ab; copies: 1 + 1 + 2
# B24: GpH7-A5/GpH7-B3 variant E269_02A/GpL16-k0 (antibody, human IgG1, kappa)
# heavy 1: not shown
# heavy 2: not shown
# light: B1 light
# notes: He Ab; copies: 1 + 1 + 2
# B25: GpH7-A5/GpH7-B3 variant E333_11K/GpL16-k0 (antibody, human IgG1, kappa)
# heavy 1: not shown
# heavy 2: not shown
# light: B1 light
# notes: He Ab; copies: 1 + 1 + 2
# B26: GpH7-A5/GpH7-B3 variant G236_04F/GpL16-k0 (antibody, human IgG1, kappa)
# heavy 1: not shown
# heavy 2: not shown
# light: B1 light
# notes: He Ab; copies: 1 + 1 + 2
# B27: GpH7-A5/GpH7-B3 variant A327_18N/GpL16-k0 (antibody, human IgG1, kappa)
# heavy 1: not shown
# heavy 2: not shown
# light: B1 light
# notes: He Ab; copies: 1 + 1 + 2
# B28: GpH7-A5/GpH7-B3 variant G236_02A/GpL16-k0 (antibody, human IgG1, kappa)
# heavy 1: not shown
# heavy 2: not shown
# light: B1 light
# notes: He Ab; copies: 1 + 1 + 2
# B29: GpH7-A5/GpH7-B3 variant D270_02A/GpL16-k0 (antibody, human IgG1, kappa)
# heavy 1: not shown
# heavy 2: not shown
# light: B1 light
# notes: He Ab; copies: 1 + 1 + 2
# B30: GpH7-A5/GpH7-B3 variant D270_13S/GpL16-k0 (antibody, human IgG1, kappa)
# heavy 1: not shown
# heavy 2: not shown
# light: B1 light
# notes: He Ab; copies: 1 + 1 + 2
# Target: T1, FcγRIIIa extracellular domain, C-terminal His tag (human, UniProt P08637 17-208)
# T1 construct: extracellular domain; also called 3a
# Test: SPR, binding activity relative to GpH7-A5/GpH7-B3/GpL16-k0 (=100)
# T1 sequence (P08637 other isoform, or with tags, fused parts or gaps): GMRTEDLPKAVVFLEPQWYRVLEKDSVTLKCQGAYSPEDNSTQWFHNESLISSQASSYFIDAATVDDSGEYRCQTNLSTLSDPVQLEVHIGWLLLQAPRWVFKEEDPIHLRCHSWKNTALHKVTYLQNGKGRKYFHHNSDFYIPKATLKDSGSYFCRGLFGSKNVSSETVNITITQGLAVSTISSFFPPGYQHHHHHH
row,He/Con 3a [%],Binder
1,86,B1
2,139,B2
3,54,B3
4,102,B4
5,55.4,B5
6,100,B6
7,66.7,B7
8,144,B8
9,91.8,B9
10,122,B10
11,64.3,B11
12,57.2,B12
13,62.1,B13
14,55.3,B14
15,67.3,B15
16,60,B16
17,51.5,B17
18,126,B18
19,50.7,B19
20,56,B20
21,102,B21
22,74.2,B22
23,76.2,B23
24,68,B24
25,97.7,B25
26,81,B26
27,62.8,B27
28,77,B28
29,50.5,B29
30,51.4,B30
